Paper PMC2856910

Target: β-cat bound to cadherin (in vitro binding studies, unpublished data) (UniProt Q02248)
Chain of UniProt Q02248 (Q02248 whole entry, chain 1 of 2): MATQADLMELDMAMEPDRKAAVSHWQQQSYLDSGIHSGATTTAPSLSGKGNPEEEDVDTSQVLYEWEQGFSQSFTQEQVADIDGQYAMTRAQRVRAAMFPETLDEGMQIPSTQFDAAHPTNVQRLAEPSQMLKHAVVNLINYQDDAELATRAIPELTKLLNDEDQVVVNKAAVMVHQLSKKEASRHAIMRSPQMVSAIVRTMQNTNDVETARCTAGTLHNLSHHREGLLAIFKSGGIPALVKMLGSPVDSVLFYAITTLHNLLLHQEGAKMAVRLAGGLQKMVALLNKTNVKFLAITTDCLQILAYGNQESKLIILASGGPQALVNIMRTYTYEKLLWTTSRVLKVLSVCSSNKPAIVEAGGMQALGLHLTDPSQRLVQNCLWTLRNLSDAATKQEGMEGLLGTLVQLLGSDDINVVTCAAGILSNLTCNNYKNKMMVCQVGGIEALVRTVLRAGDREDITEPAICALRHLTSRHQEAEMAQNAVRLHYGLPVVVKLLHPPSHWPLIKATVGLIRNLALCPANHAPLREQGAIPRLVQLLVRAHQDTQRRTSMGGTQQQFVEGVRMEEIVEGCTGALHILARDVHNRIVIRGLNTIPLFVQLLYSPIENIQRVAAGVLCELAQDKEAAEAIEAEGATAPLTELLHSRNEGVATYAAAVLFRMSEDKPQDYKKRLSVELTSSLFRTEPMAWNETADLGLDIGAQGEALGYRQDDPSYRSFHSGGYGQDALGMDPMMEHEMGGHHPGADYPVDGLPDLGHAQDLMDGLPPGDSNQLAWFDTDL
Chain of UniProt Q02248 (P09803 24-884, chain 2 of 2, further chain): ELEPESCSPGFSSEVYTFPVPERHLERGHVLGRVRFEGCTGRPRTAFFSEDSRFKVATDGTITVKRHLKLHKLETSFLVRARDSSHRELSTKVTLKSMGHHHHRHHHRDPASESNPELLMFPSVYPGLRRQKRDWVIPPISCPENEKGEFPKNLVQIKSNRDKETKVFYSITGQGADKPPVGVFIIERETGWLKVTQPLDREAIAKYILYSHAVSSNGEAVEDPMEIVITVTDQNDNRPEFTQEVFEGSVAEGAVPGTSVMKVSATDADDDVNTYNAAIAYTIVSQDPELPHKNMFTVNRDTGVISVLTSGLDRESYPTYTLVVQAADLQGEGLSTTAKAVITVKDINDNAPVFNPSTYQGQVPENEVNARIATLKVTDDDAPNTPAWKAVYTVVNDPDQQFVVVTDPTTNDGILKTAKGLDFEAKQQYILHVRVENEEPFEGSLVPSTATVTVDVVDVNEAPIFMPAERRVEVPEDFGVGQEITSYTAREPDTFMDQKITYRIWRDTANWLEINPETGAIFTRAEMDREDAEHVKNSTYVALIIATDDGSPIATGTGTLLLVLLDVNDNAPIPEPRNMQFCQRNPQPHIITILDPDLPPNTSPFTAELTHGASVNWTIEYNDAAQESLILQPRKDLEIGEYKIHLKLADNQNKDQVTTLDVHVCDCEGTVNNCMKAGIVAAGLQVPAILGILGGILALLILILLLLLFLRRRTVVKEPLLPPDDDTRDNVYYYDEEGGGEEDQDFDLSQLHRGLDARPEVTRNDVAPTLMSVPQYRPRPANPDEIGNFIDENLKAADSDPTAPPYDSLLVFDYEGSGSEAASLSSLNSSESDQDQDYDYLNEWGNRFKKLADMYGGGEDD

Substance: α-catenin (in vitro binding studies, unpublished data) (from UniProt P26231 1-906) (natural protein)
- fold enhancement of binding against β-cat alone: > 10 fold
